Assay [1] addresses Chymotrypsin.
Assay [2] deals with Subtilisin.
The target in assay [3] is Thermolysin.
Assay [4] deals with Trypsin.
The target in assay [5] is Chymotrypsin. The source holds these as a separate data set.
Assay [6] has as its target Subtilisin. This is another data set of the same source.
Assay [7] has as its target Thermolysin. The source holds these as a separate data set.
Assay [8] concerns the target Trypsin. This is another data set of the same source.
Assay [9] deals with purified secretion-type Kex2 proteinase (sKEX2 product, Saccharomyces yeast) (Saccharomyces yeast) (UniProt P13134). Set-up: unit not given beside the values.

B1: Kexstatin (proteinase inhibitor purified from the culture fluid of Streptomyces platensis Q268) (protein)
chain: GLYAPTELVLTVGQGESRATATVQRAVTLSCMPGARGSHPNPLGACTQLRAVAGDFNAITAATSDRLCTKEWNPLVVTADGVWQGKRVSYSYTFANRCEMNIDSDTVFNF
For the molecule B1, the Inhibition Ratio (%), casein Folin method is -19% with Chymotrypsin [1], 87% with Subtilisin [2], -5.5% with Thermolysin [3] and 2.4% with Trypsin [4]. In addition, the results for the Inhibition Ratio (%), synthetic fluorescent substrate Suc-Ala-Ala-Pro-Phe-MCA, enzyme at 1/10 molar ratio to 0.5 µg of Kexstatin with Chymotrypsin [5] and with Subtilisin [6] were 0% and 99.5%, respectively. Also, the Inhibition Ratio (%), casein Folin method, enzyme at 1/10 molar ratio to 0.5 µg of Kexstatin with Pepsin turned out to be 0%; in the assay with Thermolysin [7] it was 8%. For the same molecule, the Inhibition Ratio (%), synthetic fluorescent substrate Bz-Arg-MCA, enzyme at 1/10 molar ratio to 0.5 µg of Kexstatin in the assay with Trypsin [8] stood at 49.2%. For the same molecule, the IC50 (amount of Kexstatin which inhibits the activity of 1 µg of Kex2 proteinase by 50%) (µg (per 1 µg of Kex2 proteinase)) in assay [9] was determined as 1.4.

The values above are taken from patent publication US5952463.
